Numbered stars: 1 amine (or outer) side, 2 acyl side, 3 side chain; on linkers, the order of the positions; unused ones are H or OH. * marks the point of attachment. C20 diacid = O=C(O)CCCCCCCCCCCCCCCCCCC(=O)*; C18 diacid = O=C(O)CCCCCCCCCCCCCCCCC(=O)*; γGlu = O=C(O)[C@H](CCC(=O)[*:2])N[*:1]; AEEA = NCCOCCOCC(=O)O
B1: [N-terminal(C18 diacid), 4P, 9V]mimylin (peptide)
peptide: {C18 diacid}-EASPLSTAVLGRLSAELHELATLPRTETGPESP-NH2
SMILES: CC(C)C[C@H](NC(=O)[C@H](CCC(=O)O)NC(=O)[C@H](Cc1c[nH]cn1)NC(=O)[C@H](CC(C)C)NC(=O)[C@H](CCC(=O)O)NC(=O)[C@H](C)NC(=O)[C@H](CO)NC(=O)[C@H](CC(C)C)NC(=O)[C@H](CCCNC(=N)N)NC(=O)CNC(=O)[C@H](CC(C)C)NC(=O)[C@@H](NC(=O)[C@H](C)NC(=O)[C@@H](NC(=O)[C@H](CO)NC(=O)[C@H](CC(C)C)NC(=O)[C@@H]1CCCN1C(=O)[C@H](CO)NC(=O)[C@H](C)NC(=O)[C@H](CCC(=O)O)NC(=O)CCCCCCCCCCCCCCCCC(=O)O)[C@@H](C)O)C(C)C)C(=O)N[C@@H](C)C(=O)N[C@H](C(=O)N[C@@H](CC(C)C)C(=O)N1CCC[C@H]1C(=O)N[C@@H](CCCNC(=N)N)C(=O)N[C@H](C(=O)N[C@@H](CCC(=O)O)C(=O)N[C@H](C(=O)NCC(=O)N1CCC[C@H]1C(=O)N[C@@H](CCC(=O)O)C(=O)N[C@@H](CO)C(=O)N1CCC[C@H]1C(N)=O)[C@@H](C)O)[C@@H](C)O)[C@@H](C)O
B2: [N-terminal(C18 diacid), 9V, 25P]mimylin (peptide)
peptide: {C18 diacid}-EASELSTAVLGRLSAELHELATLPPTETGPESP-NH2
SMILES: CC(C)C[C@H](NC(=O)[C@H](CCC(=O)O)NC(=O)[C@H](Cc1c[nH]cn1)NC(=O)[C@H](CC(C)C)NC(=O)[C@H](CCC(=O)O)NC(=O)[C@H](C)NC(=O)[C@H](CO)NC(=O)[C@H](CC(C)C)NC(=O)[C@H](CCCNC(=N)N)NC(=O)CNC(=O)[C@H](CC(C)C)NC(=O)[C@@H](NC(=O)[C@H](C)NC(=O)[C@@H](NC(=O)[C@H](CO)NC(=O)[C@H](CC(C)C)NC(=O)[C@H](CCC(=O)O)NC(=O)[C@H](CO)NC(=O)[C@H](C)NC(=O)[C@H](CCC(=O)O)NC(=O)CCCCCCCCCCCCCCCCC(=O)O)[C@@H](C)O)C(C)C)C(=O)N[C@@H](C)C(=O)N[C@H](C(=O)N[C@@H](CC(C)C)C(=O)N1CCC[C@H]1C(=O)N1CCC[C@H]1C(=O)N[C@H](C(=O)N[C@@H](CCC(=O)O)C(=O)N[C@H](C(=O)NCC(=O)N1CCC[C@H]1C(=O)N[C@@H](CCC(=O)O)C(=O)N[C@@H](CO)C(=O)N1CCC[C@H]1C(N)=O)[C@@H](C)O)[C@@H](C)O)[C@@H](C)O
B3: [N-terminal(C18 diacid), 9V, 28P]mimylin (peptide)
peptide: {C18 diacid}-EASELSTAVLGRLSAELHELATLPRTEPGPESP-NH2
SMILES: CC(C)C[C@H](NC(=O)[C@H](CCC(=O)O)NC(=O)[C@H](Cc1c[nH]cn1)NC(=O)[C@H](CC(C)C)NC(=O)[C@H](CCC(=O)O)NC(=O)[C@H](C)NC(=O)[C@H](CO)NC(=O)[C@H](CC(C)C)NC(=O)[C@H](CCCNC(=N)N)NC(=O)CNC(=O)[C@H](CC(C)C)NC(=O)[C@@H](NC(=O)[C@H](C)NC(=O)[C@@H](NC(=O)[C@H](CO)NC(=O)[C@H](CC(C)C)NC(=O)[C@H](CCC(=O)O)NC(=O)[C@H](CO)NC(=O)[C@H](C)NC(=O)[C@H](CCC(=O)O)NC(=O)CCCCCCCCCCCCCCCCC(=O)O)[C@@H](C)O)C(C)C)C(=O)N[C@@H](C)C(=O)N[C@H](C(=O)N[C@@H](CC(C)C)C(=O)N1CCC[C@H]1C(=O)N[C@@H](CCCNC(=N)N)C(=O)N[C@H](C(=O)N[C@@H](CCC(=O)O)C(=O)N1CCC[C@H]1C(=O)NCC(=O)N1CCC[C@H]1C(=O)N[C@@H](CCC(=O)O)C(=O)N[C@@H](CO)C(=O)N1CCC[C@H]1C(N)=O)[C@@H](C)O)[C@@H](C)O
B4: [N-terminal(C18 diacid), 9V, 18A]mimylin (peptide)
peptide: {C18 diacid}-EASELSTAVLGRLSAELAELATLPRTETGPESP-NH2
SMILES: CC(C)C[C@H](NC(=O)[C@H](CCC(=O)O)NC(=O)[C@H](C)NC(=O)[C@H](CO)NC(=O)[C@H](CC(C)C)NC(=O)[C@H](CCCNC(=N)N)NC(=O)CNC(=O)[C@H](CC(C)C)NC(=O)[C@@H](NC(=O)[C@H](C)NC(=O)[C@@H](NC(=O)[C@H](CO)NC(=O)[C@H](CC(C)C)NC(=O)[C@H](CCC(=O)O)NC(=O)[C@H](CO)NC(=O)[C@H](C)NC(=O)[C@H](CCC(=O)O)NC(=O)CCCCCCCCCCCCCCCCC(=O)O)[C@@H](C)O)C(C)C)C(=O)N[C@@H](C)C(=O)N[C@@H](CCC(=O)O)C(=O)N[C@@H](CC(C)C)C(=O)N[C@@H](C)C(=O)N[C@H](C(=O)N[C@@H](CC(C)C)C(=O)N1CCC[C@H]1C(=O)N[C@@H](CCCNC(=N)N)C(=O)N[C@H](C(=O)N[C@@H](CCC(=O)O)C(=O)N[C@H](C(=O)NCC(=O)N1CCC[C@H]1C(=O)N[C@@H](CCC(=O)O)C(=O)N[C@@H](CO)C(=O)N1CCC[C@H]1C(N)=O)[C@@H](C)O)[C@@H](C)O)[C@@H](C)O
B5: [N-terminal(C20 diacid-gGlu), 23Y, 30S, 31G]mimylin (peptide)
peptide: {C20 diacid-γGlu}-EASELSTAALGRLSAELHELATYPRTETGSGSP-NH2
SMILES: CC(C)C[C@H](NC(=O)[C@H](C)NC(=O)[C@H](C)NC(=O)[C@@H](NC(=O)[C@H](CO)NC(=O)[C@H](CC(C)C)NC(=O)[C@H](CCC(=O)O)NC(=O)[C@H](CO)NC(=O)[C@H](C)NC(=O)[C@H](CCC(=O)O)NC(=O)CC[C@H](NC(=O)CCCCCCCCCCCCCCCCCCC(=O)O)C(=O)O)[C@@H](C)O)C(=O)NCC(=O)N[C@@H](CCCNC(=N)N)C(=O)N[C@@H](CC(C)C)C(=O)N[C@@H](CO)C(=O)N[C@@H](C)C(=O)N[C@@H](CCC(=O)O)C(=O)N[C@@H](CC(C)C)C(=O)N[C@@H](Cc1c[nH]cn1)C(=O)N[C@@H](CCC(=O)O)C(=O)N[C@@H](CC(C)C)C(=O)N[C@@H](C)C(=O)N[C@H](C(=O)N[C@@H](Cc1ccc(O)cc1)C(=O)N1CCC[C@H]1C(=O)N[C@@H](CCCNC(=N)N)C(=O)N[C@H](C(=O)N[C@@H](CCC(=O)O)C(=O)N[C@H](C(=O)NCC(=O)N[C@@H](CO)C(=O)NCC(=O)N[C@@H](CO)C(=O)N1CCC[C@H]1C(N)=O)[C@@H](C)O)[C@@H](C)O)[C@@H](C)O
B6: [N-terminal(C20 diacid-gGlu), des1, 30S, 31G, 33F]mimylin (peptide)
peptide: {C20 diacid-γGlu}-ASELSTAALGRLSAELHELATLPRTETGSGSF-NH2
SMILES: CC(C)C[C@H](NC(=O)[C@H](C)NC(=O)[C@H](C)NC(=O)[C@@H](NC(=O)[C@H](CO)NC(=O)[C@H](CC(C)C)NC(=O)[C@H](CCC(=O)O)NC(=O)[C@H](CO)NC(=O)[C@H](C)NC(=O)CC[C@H](NC(=O)CCCCCCCCCCCCCCCCCCC(=O)O)C(=O)O)[C@@H](C)O)C(=O)NCC(=O)N[C@@H](CCCNC(=N)N)C(=O)N[C@@H](CC(C)C)C(=O)N[C@@H](CO)C(=O)N[C@@H](C)C(=O)N[C@@H](CCC(=O)O)C(=O)N[C@@H](CC(C)C)C(=O)N[C@@H](Cc1c[nH]cn1)C(=O)N[C@@H](CCC(=O)O)C(=O)N[C@@H](CC(C)C)C(=O)N[C@@H](C)C(=O)N[C@H](C(=O)N[C@@H](CC(C)C)C(=O)N1CCC[C@H]1C(=O)N[C@@H](CCCNC(=N)N)C(=O)N[C@H](C(=O)N[C@@H](CCC(=O)O)C(=O)N[C@H](C(=O)NCC(=O)N[C@@H](CO)C(=O)NCC(=O)N[C@@H](CO)C(=O)N[C@@H](Cc1ccccc1)C(N)=O)[C@@H](C)O)[C@@H](C)O)[C@@H](C)O
B7: [N-terminal(C20 diacid-gGlu), des1, 30S, 31G, 33L]mimylin (peptide)
peptide: {C20 diacid-γGlu}-ASELSTAALGRLSAELHELATLPRTETGSGSL-NH2
SMILES: CC(C)C[C@H](NC(=O)[C@H](CO)NC(=O)CNC(=O)[C@H](CO)NC(=O)CNC(=O)[C@@H](NC(=O)[C@H](CCC(=O)O)NC(=O)[C@@H](NC(=O)[C@H](CCCNC(=N)N)NC(=O)[C@@H]1CCCN1C(=O)[C@H](CC(C)C)NC(=O)[C@@H](NC(=O)[C@H](C)NC(=O)[C@H](CC(C)C)NC(=O)[C@H](CCC(=O)O)NC(=O)[C@H](Cc1c[nH]cn1)NC(=O)[C@H](CC(C)C)NC(=O)[C@H](CCC(=O)O)NC(=O)[C@H](C)NC(=O)[C@H](CO)NC(=O)[C@H](CC(C)C)NC(=O)[C@H](CCCNC(=N)N)NC(=O)CNC(=O)[C@H](CC(C)C)NC(=O)[C@H](C)NC(=O)[C@H](C)NC(=O)[C@@H](NC(=O)[C@H](CO)NC(=O)[C@H](CC(C)C)NC(=O)[C@H](CCC(=O)O)NC(=O)[C@H](CO)NC(=O)[C@H](C)NC(=O)CC[C@H](NC(=O)CCCCCCCCCCCCCCCCCCC(=O)O)C(=O)O)[C@@H](C)O)[C@@H](C)O)[C@@H](C)O)[C@@H](C)O)C(N)=O
B8: [N-terminal(C20 diacid-gGlu), des1, 30S, 31G, 33S]mimylin (peptide)
peptide: {C20 diacid-γGlu}-ASELSTAALGRLSAELHELATLPRTETGSGSS-NH2
SMILES: CC(C)C[C@H](NC(=O)[C@H](C)NC(=O)[C@H](C)NC(=O)[C@@H](NC(=O)[C@H](CO)NC(=O)[C@H](CC(C)C)NC(=O)[C@H](CCC(=O)O)NC(=O)[C@H](CO)NC(=O)[C@H](C)NC(=O)CC[C@H](NC(=O)CCCCCCCCCCCCCCCCCCC(=O)O)C(=O)O)[C@@H](C)O)C(=O)NCC(=O)N[C@@H](CCCNC(=N)N)C(=O)N[C@@H](CC(C)C)C(=O)N[C@@H](CO)C(=O)N[C@@H](C)C(=O)N[C@@H](CCC(=O)O)C(=O)N[C@@H](CC(C)C)C(=O)N[C@@H](Cc1c[nH]cn1)C(=O)N[C@@H](CCC(=O)O)C(=O)N[C@@H](CC(C)C)C(=O)N[C@@H](C)C(=O)N[C@H](C(=O)N[C@@H](CC(C)C)C(=O)N1CCC[C@H]1C(=O)N[C@@H](CCCNC(=N)N)C(=O)N[C@H](C(=O)N[C@@H](CCC(=O)O)C(=O)N[C@H](C(=O)NCC(=O)N[C@@H](CO)C(=O)NCC(=O)N[C@@H](CO)C(=O)N[C@@H](CO)C(N)=O)[C@@H](C)O)[C@@H](C)O)[C@@H](C)O

Each binder was assayed against T1, human amylin receptor (human calcitonin receptor + human RAMP3) (human) (UniProt P30988) (assay: whole-cell competition vs 125I-rat amylin (Assay Va)).
T1 sequence (looked up) 1: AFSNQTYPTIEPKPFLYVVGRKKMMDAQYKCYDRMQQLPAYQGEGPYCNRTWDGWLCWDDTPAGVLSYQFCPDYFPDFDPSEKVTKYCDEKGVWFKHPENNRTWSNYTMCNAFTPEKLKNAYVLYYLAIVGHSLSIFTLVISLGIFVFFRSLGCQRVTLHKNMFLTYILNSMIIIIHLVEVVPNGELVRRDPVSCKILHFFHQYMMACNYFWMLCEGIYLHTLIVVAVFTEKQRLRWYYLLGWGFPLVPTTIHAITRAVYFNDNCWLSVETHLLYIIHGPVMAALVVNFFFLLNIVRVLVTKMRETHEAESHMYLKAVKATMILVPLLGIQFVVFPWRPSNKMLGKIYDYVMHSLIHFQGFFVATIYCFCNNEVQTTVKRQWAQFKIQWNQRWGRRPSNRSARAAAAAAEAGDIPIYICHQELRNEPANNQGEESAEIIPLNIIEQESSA
T1 sequence (looked up) 2: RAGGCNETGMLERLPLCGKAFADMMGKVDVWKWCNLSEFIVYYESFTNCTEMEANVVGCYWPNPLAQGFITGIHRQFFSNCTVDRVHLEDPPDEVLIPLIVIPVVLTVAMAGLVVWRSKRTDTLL

Question: With B1 as the binder, how does the IC50 read?
Answer: Its IC50 is 0.323 nM.

Question: How did the IC50 turn out when B2 was run?
Answer: Its IC50 is 0.383 nM.

Question: With B3 as the binder, how does the IC50 read?
Answer: The IC50 was 9 nM.

Question: Which IC50 does the source give for B4 here?
Answer: Its IC50 is 0.745 nM.

Question: Which IC50 does the source give for B5 here?
Answer: Its IC50 is 1.59 nM.

Question: With {C20 diacid-γGlu-AEEA-AEEA-AEEA}-ASELSTAALGRLSAELHELATLPRTETGSGSP-NH2 [[N-terminal(C20 diacid-gGlu-3xOEG), des1, 30S, 31G]mimylin] as the binder, how does the IC50 read?
Answer: The IC50 was 0.432 nM.

Question: B6 was tested. Which IC50 did it give?
Answer: Its IC50 is 1.36 nM.

Question: How did the IC50 turn out when B7 was run?
Answer: Its IC50 is 3.05 nM.

Question: For B8, which IC50 is on record?
Answer: Its IC50 is 4.07 nM.

— patent publication US20160272683A1 (Novo Nordisk, published 2016)
